Tests used:
Assay in all cases: holdup assay
Design in all cases: key: below the threshold = too weak to quantify, mostly under pKd 3.1 to 4
Conditions in all cases: plain residues with an end cap or a label only (N-terminal biotin on a linker: ado-ado)
[1] = target: T1, APBA3_1, O96018
T1 sequence (O96018 389-490, limits assumed, looked up): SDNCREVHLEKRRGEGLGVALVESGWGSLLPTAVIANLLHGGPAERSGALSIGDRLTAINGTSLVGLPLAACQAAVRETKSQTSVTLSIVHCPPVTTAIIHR

[2] = target: T2, CARD11, Q9BXL7
T2 sequence (Q9BXL7 662-765, limits assumed, looked up): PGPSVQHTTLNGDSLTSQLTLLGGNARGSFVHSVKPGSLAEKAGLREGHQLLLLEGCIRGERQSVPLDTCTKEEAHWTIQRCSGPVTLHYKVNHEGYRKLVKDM

[3] = target: T3, DFNB31_1, Q9P202
T3 sequence (Q9P202 135-233, limits assumed, looked up): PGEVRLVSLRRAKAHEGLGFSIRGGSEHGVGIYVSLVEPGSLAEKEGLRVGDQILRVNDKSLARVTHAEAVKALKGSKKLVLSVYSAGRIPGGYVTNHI

[4] = target: DLG2_2, Q15700
[5] = target: DLG4_1, P78352
[6] = target: FRMPD2_2, Q68DX3
[7] = target: GRASP, Q7Z6J2
[8] = target: GRID2IP_1, A4D2P6
[9] = target: T4, GRIP1_3, Q9Y3R0
T4 sequence (Q9Y3R0 247-346, limits assumed, looked up): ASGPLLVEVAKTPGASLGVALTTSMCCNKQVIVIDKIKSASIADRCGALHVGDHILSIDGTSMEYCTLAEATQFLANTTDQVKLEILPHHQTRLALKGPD

[10] = target: GRIP2_4, Q9C0E4
[11] = target: GRIP2_7, Q9C0E4
[12] = target: HTRA1, Q92743
[13] = target: T5, HTRA4, P83105
T5 sequence (P83105 378-476, limits assumed, looked up): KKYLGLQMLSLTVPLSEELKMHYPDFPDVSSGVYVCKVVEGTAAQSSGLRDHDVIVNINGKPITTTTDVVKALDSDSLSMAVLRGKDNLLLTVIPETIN

[14] = target: Inadl_2, Q8NI35
[15] = target: Inadl_6, Q8NI35
[16] = target: LDB3, O75112
[17] = target: LIMK2, P53671
[18] = target: T6, LIN7C, Q9NUP9
T6 sequence (Q9NUP9 88-185, limits assumed, looked up): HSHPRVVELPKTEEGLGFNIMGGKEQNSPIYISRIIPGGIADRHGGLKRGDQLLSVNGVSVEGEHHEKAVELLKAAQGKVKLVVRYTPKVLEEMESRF

[19] = target: MAGI2_2, Q86UL8
[20] = target: MAGI2_5, Q86UL8
[21] = target: MAGI3_2, Q5TCQ9
[22] = target: NHERF2_2, Q15599
[23] = target: T7, NHERF3_3, Q5T2W1
T7 sequence (Q5T2W1 238-333, limits assumed, looked up): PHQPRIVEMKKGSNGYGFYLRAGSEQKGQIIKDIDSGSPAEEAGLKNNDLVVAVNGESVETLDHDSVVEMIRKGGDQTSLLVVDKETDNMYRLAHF

[24] = target: NHERF4_4, Q86UT5
[25] = target: PARD3_3, Q8TEW0
[26] = target: T8, RAPGEF6, Q8TEU7
T8 sequence (Q8TEU7 525-625, limits assumed, looked up): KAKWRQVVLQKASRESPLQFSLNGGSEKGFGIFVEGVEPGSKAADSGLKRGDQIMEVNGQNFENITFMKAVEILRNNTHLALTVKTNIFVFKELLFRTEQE

[27] = target: T9, SHANK1, Q9Y566
T9 sequence (Q9Y566 658-767, limits assumed, looked up): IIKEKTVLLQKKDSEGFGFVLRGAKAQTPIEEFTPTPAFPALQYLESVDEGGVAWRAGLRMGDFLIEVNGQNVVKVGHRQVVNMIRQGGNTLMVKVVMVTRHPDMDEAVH

[28] = target: SNX27, Q96L92

Chain of HTRA1, Q92743 (Q92743 360-477): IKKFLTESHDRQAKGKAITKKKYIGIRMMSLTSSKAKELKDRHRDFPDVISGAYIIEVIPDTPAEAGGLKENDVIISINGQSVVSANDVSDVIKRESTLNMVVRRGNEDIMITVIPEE
Chain of MAGI2_5, Q86UL8 (Q86UL8 915-1017): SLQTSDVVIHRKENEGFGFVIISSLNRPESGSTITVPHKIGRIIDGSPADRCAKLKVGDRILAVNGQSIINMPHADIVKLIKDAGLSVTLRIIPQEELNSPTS
Chain of MAGI2_2, Q86UL8 (Q86UL8 410-522): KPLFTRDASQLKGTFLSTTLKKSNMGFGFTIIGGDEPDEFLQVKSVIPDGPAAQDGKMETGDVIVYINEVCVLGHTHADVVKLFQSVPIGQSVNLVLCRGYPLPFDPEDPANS
Chain of GRIP2_4, Q9C0E4 (Q9C0E4 446-548): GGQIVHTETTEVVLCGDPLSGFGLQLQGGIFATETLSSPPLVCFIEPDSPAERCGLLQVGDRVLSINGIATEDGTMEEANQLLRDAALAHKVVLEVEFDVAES
Chain of Inadl_6, Q8NI35 (Q8NI35 1058-1167): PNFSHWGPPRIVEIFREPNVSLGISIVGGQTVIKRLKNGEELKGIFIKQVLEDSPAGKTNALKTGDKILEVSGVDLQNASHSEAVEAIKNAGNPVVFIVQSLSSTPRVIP
Chain of NHERF4_4, Q86UT5 (Q86UT5 464-550): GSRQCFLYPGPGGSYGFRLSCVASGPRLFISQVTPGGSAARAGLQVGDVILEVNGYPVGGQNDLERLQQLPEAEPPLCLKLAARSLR
Chain of NHERF2_2, Q15599 (Q15599 142-238): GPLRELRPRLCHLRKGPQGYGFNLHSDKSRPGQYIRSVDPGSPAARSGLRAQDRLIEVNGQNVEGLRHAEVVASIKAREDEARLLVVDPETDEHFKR
Chain of GRID2IP_1, A4D2P6 (A4D2P6 1-87): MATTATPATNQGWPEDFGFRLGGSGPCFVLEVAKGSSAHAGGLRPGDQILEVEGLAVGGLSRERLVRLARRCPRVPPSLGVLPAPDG
Chain of PARD3_3, Q8TEW0 (Q8TEW0 582-685): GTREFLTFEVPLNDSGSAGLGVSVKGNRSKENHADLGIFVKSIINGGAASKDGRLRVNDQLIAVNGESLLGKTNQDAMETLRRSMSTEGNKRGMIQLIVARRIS
Chain of Inadl_2, Q8NI35 (Q8NI35 238-335): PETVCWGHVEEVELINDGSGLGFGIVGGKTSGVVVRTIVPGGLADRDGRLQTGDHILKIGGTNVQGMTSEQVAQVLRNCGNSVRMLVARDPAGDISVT
Chain of LDB3, O75112 (O75112 1-94): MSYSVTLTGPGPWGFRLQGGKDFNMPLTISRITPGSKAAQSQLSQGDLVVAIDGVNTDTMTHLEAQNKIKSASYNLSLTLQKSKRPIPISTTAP
Chain of GRIP2_7, Q9C0E4 (Q9C0E4 934-1023): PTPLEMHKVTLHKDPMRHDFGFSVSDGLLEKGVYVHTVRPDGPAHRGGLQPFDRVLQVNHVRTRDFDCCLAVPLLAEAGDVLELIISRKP
Chain of FRMPD2_2, Q68DX3 (Q68DX3 944-1038): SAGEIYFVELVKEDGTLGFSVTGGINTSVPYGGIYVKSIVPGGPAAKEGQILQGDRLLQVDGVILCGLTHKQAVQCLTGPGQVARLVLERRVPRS
Chain of LIMK2, P53671 (P53671 143-248): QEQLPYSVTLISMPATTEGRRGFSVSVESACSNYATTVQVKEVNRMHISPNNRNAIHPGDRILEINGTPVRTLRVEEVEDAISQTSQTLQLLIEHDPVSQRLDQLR
Chain of DLG2_2, Q15700 (Q15700 189-283): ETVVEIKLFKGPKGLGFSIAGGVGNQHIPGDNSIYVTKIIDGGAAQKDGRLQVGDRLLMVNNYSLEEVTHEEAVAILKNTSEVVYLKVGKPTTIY
Chain of MAGI3_2, Q5TCQ9 (Q5TCQ9 398-503): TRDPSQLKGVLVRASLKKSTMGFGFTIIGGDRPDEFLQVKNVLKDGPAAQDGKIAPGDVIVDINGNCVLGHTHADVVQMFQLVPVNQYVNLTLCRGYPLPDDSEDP
Chain of DLG4_1, P78352 (P78352 62-152): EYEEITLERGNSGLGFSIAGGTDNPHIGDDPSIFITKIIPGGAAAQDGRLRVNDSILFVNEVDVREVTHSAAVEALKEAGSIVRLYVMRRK
Chain of GRASP, Q7Z6J2 (Q7Z6J2 96-193): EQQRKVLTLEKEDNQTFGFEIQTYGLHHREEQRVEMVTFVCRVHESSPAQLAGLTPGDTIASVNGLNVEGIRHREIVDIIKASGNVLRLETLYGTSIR

B1: CACNG2, Q9Y698 (peptide)
chain: NTANRRTTPV
pKd [1]: below the threshold | pKd [2]: below the threshold | pKd [3]: 3.76 | pKd [4]: 4.53 | pKd [5]: 4.5 | pKd [6]: 3.59 | pKd [7]: 4.18 | pKd [8]: below the threshold | pKd [9]: below the threshold | pKd [10]: below the threshold | pKd [11]: below the threshold | pKd [12]: below the threshold | pKd [13]: below the threshold | pKd [14]: below the threshold | pKd [15]: below the threshold | pKd [16]: below the threshold | pKd [17]: below the threshold | pKd [18]: below the threshold | pKd [19]: 4.98 | pKd [20]: below the threshold | pKd [21]: 5.16 | pKd [22]: below the threshold | pKd [23]: below the threshold | pKd [24]: below the threshold | pKd [25]: below the threshold | pKd [26]: below the threshold | pKd [27]: below the threshold | pKd [28]: 4.99

B2: FAM110D, Q8TAY7 (peptide)
chain: ARGPPRESEV
pKd [1]: below the threshold | pKd [2]: below the threshold | pKd [3]: 3.75 | pKd [4]: 5.3 | pKd [5]: 4.83 | pKd [6]: 3.5 | pKd [7]: below the threshold | pKd [8]: below the threshold | pKd [9]: below the threshold | pKd [10]: below the threshold | pKd [11]: below the threshold | pKd [12]: below the threshold | pKd [13]: 3.87 | pKd [14]: below the threshold | pKd [15]: below the threshold | pKd [16]: below the threshold | pKd [17]: below the threshold | pKd [18]: 3.67 | pKd [19]: 4.56 | pKd [20]: 3.9 | pKd [21]: 5.03 | pKd [22]: below the threshold | pKd [23]: below the threshold | pKd [24]: below the threshold | pKd [25]: below the threshold | pKd [26]: below the threshold | pKd [27]: below the threshold | pKd [28]: 4.65

B3: KLHDC7A, Q5VTJ3 (peptide)
chain: PTPDLPQTRV
pKd [1]: below the threshold | pKd [2]: below the threshold | pKd [3]: 4.79 | pKd [4]: below the threshold | pKd [5]: below the threshold | pKd [6]: 3.8 | pKd [7]: 3.64 | pKd [8]: below the threshold | pKd [9]: below the threshold | pKd [10]: below the threshold | pKd [11]: below the threshold | pKd [12]: below the threshold | pKd [13]: 3.87 | pKd [14]: below the threshold | pKd [15]: below the threshold | pKd [16]: below the threshold | pKd [17]: below the threshold | pKd [18]: 3.49 | pKd [19]: 3.86 | pKd [20]: below the threshold | pKd [21]: 3.79 | pKd [22]: below the threshold | pKd [23]: below the threshold | pKd [24]: below the threshold | pKd [25]: below the threshold | pKd [26]: below the threshold | pKd [27]: 4.5 | pKd [28]: 4.21
